According to paper PMC6313988:

Biological target: hypothetical protein ST2166 (putative isocitrate dehydrogenase) from Sulfolobus tokodaii strain 7 (Sulfolobus tokodaii strain 7)
Experiment: crystal structure; hanging-drop crystals of ST2166 (8 mg/mL) in 13% PEG 10,000, 100 mM HEPES pH 7.5, 10°C; space group P21, two monomers in the asymmetric unit; apo form at 2.0 Å and crystal soaked with 25 mM NADP+ at 2.4 Å

- stoichiometry N: 2
Substance: hypothetical protein ST2166 (putative isocitrate dehydrogenase) from Sulfolobus tokodaii strain 7 (enzyme)
